Assay results published in article PMC5778499.

Tests used:
[1] = biological target: T1, Pit-1wt (UniProt P28069 1-291); assay: fluorescence anisotropy
T1 sequence: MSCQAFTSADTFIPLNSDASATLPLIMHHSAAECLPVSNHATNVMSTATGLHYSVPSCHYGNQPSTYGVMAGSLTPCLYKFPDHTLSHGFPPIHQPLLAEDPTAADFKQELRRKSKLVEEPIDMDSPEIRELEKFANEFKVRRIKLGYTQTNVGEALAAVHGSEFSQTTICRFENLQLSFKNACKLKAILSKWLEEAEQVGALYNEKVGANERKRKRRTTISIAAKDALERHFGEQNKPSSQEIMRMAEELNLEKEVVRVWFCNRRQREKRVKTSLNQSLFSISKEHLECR

[2] = biological target: T2, UHRF1 (UniProt Q96T88 1-793); assay: EMSA
T2 sequence: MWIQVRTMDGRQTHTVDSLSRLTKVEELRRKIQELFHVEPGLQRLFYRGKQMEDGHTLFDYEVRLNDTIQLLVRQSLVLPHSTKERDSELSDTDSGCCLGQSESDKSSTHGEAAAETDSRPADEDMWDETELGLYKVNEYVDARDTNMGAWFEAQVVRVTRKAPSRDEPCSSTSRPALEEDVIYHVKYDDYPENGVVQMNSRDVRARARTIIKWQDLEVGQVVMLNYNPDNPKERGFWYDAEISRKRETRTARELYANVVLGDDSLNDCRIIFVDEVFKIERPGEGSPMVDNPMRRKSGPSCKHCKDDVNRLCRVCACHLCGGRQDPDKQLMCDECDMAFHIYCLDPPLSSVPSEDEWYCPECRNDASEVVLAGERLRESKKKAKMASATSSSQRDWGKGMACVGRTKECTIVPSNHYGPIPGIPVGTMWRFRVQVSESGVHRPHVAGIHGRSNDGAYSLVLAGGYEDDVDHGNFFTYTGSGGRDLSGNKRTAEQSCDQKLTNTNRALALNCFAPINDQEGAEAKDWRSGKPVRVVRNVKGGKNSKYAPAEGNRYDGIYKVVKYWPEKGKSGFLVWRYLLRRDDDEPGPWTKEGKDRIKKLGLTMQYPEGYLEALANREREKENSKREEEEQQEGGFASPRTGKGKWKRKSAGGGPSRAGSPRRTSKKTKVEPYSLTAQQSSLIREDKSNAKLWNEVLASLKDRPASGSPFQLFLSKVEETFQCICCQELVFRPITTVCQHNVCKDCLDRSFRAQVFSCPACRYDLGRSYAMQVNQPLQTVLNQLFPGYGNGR

[3] = biological target: T1, Pit-1wt; assay: EMSA
[4] = biological target: T3, Pit-1ΔN (UniProt P28069 105-291); assay: competition
T3 sequence: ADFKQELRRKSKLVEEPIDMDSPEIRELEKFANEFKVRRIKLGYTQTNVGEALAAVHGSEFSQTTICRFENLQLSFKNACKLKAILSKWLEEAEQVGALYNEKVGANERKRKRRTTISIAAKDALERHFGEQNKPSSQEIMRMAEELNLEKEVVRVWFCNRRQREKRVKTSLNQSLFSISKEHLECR

[5] = biological target: T3, Pit-1ΔN; assay: competition; remark: listed apart in the source
[6] = biological target: T3, Pit-1ΔN; assay: competition; remark: listed apart in the source
[7] = biological target: T4, Pit-1ΔNΔC (UniProt P28069 124-273); assay: gel filtration
T4 sequence: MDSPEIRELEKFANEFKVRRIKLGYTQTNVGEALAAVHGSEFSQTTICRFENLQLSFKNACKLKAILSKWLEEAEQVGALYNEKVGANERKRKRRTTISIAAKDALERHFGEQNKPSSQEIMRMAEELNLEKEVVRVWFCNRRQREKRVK

[8] = biological target: T3, Pit-1ΔN; assay: fluorescence anisotropy
[9] = biological target: T3, Pit-1ΔN; assay: fluorescence anisotropy; remark: listed apart in the source

B1: f0x (dsDNA)
DNA 1: TGTCCTCTTCCTGCTATGTCATGGCTTATCTTCTTTCACCCAGCAGTATTAGTCAATGTCTCTTGTATGCCTGGCACCT
DNA 2: AGGTGCCAGGCATACAAGAGACATTGACTAATACTGCTGGGTGAAAGAAGATAAGCCATGACATAGCAGGAAGAGGACA
[1]
  Kd: 167 nM

B2: 8xCATT 111 biotin (dsDNA)
DNA 1: TGTCCTCTTCCTGCTATGTCATGGCTTATCTTCTTTCACCCATTCATTCATTCATTCATTCATTCATTCATTCAGCAGTATTAGTCAATGTCTCTTGTATGCCTGGCACCT
DNA 2: AGGTGCCAGGCATACAAGAGACATTGACTAATACTGCTGAATGAATGAATGAATGAATGAATGAATGAATGGGTGAAAGAAGATAAGCCATGACATAGCAGGAAGAGGACA
[2]
  Kd: > 1000 nM
[3]
  binding result: binds

B3: u8x111 (dsDNA)
DNA 1: TGTCCTCTTCCTGCTATGTCATGGCTTATCTTCTTTCACCCATTCATTCATTCATTCATTCATTCATTCATTCAGCAGTATTAGTCAATGTCTCTTGTATGCCTGGCACCT
DNA 2: AGGTGCCAGGCATACAAGAGACATTGACTAATACTGCTGAATGAATGAATGAATGAATGAATGAATGAATGGGTGAAAGAAGATAAGCCATGACATAGCAGGAAGAGGACA
[4]
  binding result: binds

B4: u4x (4xCATT) (dsDNA)
DNA 1: CACCCATTCATTCATTCATTCAG
DNA 2: CTGAATGAATGAATGAATGGGTG
[5]
  binding result: binds

B5: uhGH (dsDNA)
DNA 1: GAGGAGCTTCTAAATTATCCATTAGCACAAGCCCGTCAGTGGCCCCATGCATAAATGTACACAGAAACAG
DNA 2: CTGTTTCTGTGTACATTTATGCATGGGGCCACTGACGGGCTTGTGCTAATGGATAATTTAGAAGCTCCTC
[6]
  binding result: binds

B6: 4xCATT crystallization duplex (f4xCrystF/f4xCrystRC) (dsDNA)
DNA 1: CCATTCATTCATTCATTCGGA
DNA 2: CCGAATGAATGAATGAATGGT
[7]
  binding result: binds

B7: f4x (dsDNA)
DNA 1: CACCCATTCATTCATTCATTCAG
DNA 2: CTGAATGAATGAATGAATGGGTG
[8]
  binding result: binds

B8: f8x (dsDNA)
DNA 1: CACCCATTCATTCATTCATTCATTCATTCATTCATTCAG
DNA 2: CTGAATGAATGAATGAATGAATGAATGAATGAATGGGTG
[1]
  Kd: 35 nM
[9]
  Kd: 27 nM

B9: u5x99 (dsDNA)
DNA 1: TGTCCTCTTCCTGCTATGTCATGGCTTATCTTCTTTCACCCATTCATTCATTCATTCATTCAGCAGTATTAGTCAATGTCTCTTGTATGCCTGGCACCT
DNA 2: AGGTGCCAGGCATACAAGAGACATTGACTAATACTGCTGAATGAATGAATGAATGAATGGGTGAAAGAAGATAAGCCATGACATAGCAGGAAGAGGACA
[4]
  binding result: binds
